Test results as given in patent US20170008943A1 (Novo Nordisk, published 2017).
*1 amine or outer side, *2 acyl side, *3 side chain or, on linkers, in order; H or OH if unused. Side-chain parts run from the residue outwards. [ ]: non-standard residue; d: D form. The star is where a group is joined. γGlu = O=C(O)[C@H](CCC(=O)[*:2])N[*:1]; Desaminohistidyl = O=C(CCc1c[nH]cn1)*; Aib = CC(C)(N)C(=O)O

Assays:
human glucagon receptor [1] = molecular target: T1, human glucagon receptor (human, UniProt P47871 26-477); experiment: cell-based or functional assay
human glucagon receptor [2] = molecular target: T1, human glucagon receptor; experiment: displacement of 125I-glucagon from BHK membranes with human glucagon receptor (SPA), Assay (II)(b)

T1 sequence (P47871 26-477): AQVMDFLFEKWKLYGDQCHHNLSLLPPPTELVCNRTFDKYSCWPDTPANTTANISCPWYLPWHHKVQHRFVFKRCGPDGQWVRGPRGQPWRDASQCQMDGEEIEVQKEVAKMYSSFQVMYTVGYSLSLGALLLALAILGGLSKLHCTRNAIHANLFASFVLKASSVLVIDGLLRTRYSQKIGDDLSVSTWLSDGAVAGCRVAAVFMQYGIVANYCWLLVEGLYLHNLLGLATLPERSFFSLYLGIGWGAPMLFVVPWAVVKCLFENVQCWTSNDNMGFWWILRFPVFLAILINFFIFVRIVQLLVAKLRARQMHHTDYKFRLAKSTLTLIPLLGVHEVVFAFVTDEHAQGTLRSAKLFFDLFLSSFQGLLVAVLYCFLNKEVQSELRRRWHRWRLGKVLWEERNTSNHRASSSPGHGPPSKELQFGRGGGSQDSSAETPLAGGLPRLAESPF

| Binder | EC50 hGlucagonR (pM), CRE luciferase reporter in BHK cells (human glucagon receptor [1]) [pM] | IC50 (human glucagon receptor [2]) [nM] |
| --- | --- | --- |
| [Desaminohistidyl]SHGTFTSDYSKYLESRRAQEFVK([γGlu-γGlu-γGlu-γGlu-Ac])WLLST-OH (SMILES CC(=O)N[C@@H](CCC(=O)N[C@@H](CCC(=O)N[C@@H](CCC(=O)N[C@@H](CCC(=O)NCCCC[C@H](NC(=O)[C@@H](NC(=O)[C@H](Cc1ccccc1)NC(=O)[C@H](CCC(=O)O)NC(=O)[C@H](CCC(N)=O)NC(=O)[C@H](C)NC(=O)[C@H](CCCNC(=N)N)NC(=O)[C@H](CCCNC(=N)N)NC(=O)[C@H](CO)NC(=O)[C@H](CCC(=O)O)NC(=O)[C@H](CC(C)C)NC(=O)[C@H](Cc1ccc(O)cc1)NC(=O)[C@H](CCCCN)NC(=O)[C@H](CO)NC(=O)[C@H](Cc1ccc(O)cc1)NC(=O)[C@H](CC(=O)O)NC(=O)[C@H](CO)NC(=O)[C@@H](NC(=O)[C@H](Cc1ccccc1)NC(=O)[C@@H](NC(=O)CNC(=O)[C@H](Cc1c[nH]cn1)NC(=O)[C@H](CO)NC(=O)CCc1c[nH]cn1)[C@@H](C)O)[C@@H](C)O)C(C)C)C(=O)N[C@@H](Cc1c[nH]c2ccccc12)C(=O)N[C@@H](CC(C)C)C(=O)N[C@@H](CC(C)C)C(=O)N[C@@H](CO)C(=O)N[C@H](C(=O)O)[C@@H](C)O)C(=O)O)C(=O)O)C(=O)O)C(=O)O, Imp written X under substitutions) | 4.7 | 1.8 |
| [Desaminohistidyl][Aib]HGTFTSDYSKYLESRRAQDFVK([γGlu-γGlu-γGlu-γGlu-Ac])WLLST-OH (SMILES CC(=O)N[C@@H](CCC(=O)N[C@@H](CCC(=O)N[C@@H](CCC(=O)N[C@@H](CCC(=O)NCCCC[C@H](NC(=O)[C@@H](NC(=O)[C@H](Cc1ccccc1)NC(=O)[C@H](CC(=O)O)NC(=O)[C@H](CCC(N)=O)NC(=O)[C@H](C)NC(=O)[C@H](CCCNC(=N)N)NC(=O)[C@H](CCCNC(=N)N)NC(=O)[C@H](CO)NC(=O)[C@H](CCC(=O)O)NC(=O)[C@H](CC(C)C)NC(=O)[C@H](Cc1ccc(O)cc1)NC(=O)[C@H](CCCCN)NC(=O)[C@H](CO)NC(=O)[C@H](Cc1ccc(O)cc1)NC(=O)[C@H](CC(=O)O)NC(=O)[C@H](CO)NC(=O)[C@@H](NC(=O)[C@H](Cc1ccccc1)NC(=O)[C@@H](NC(=O)CNC(=O)[C@H](Cc1c[nH]cn1)NC(=O)C(C)(C)NC(=O)CCc1c[nH]cn1)[C@@H](C)O)[C@@H](C)O)C(C)C)C(=O)N[C@@H](Cc1c[nH]c2ccccc12)C(=O)N[C@@H](CC(C)C)C(=O)N[C@@H](CC(C)C)C(=O)N[C@@H](CO)C(=O)N[C@H](C(=O)O)[C@@H](C)O)C(=O)O)C(=O)O)C(=O)O)C(=O)O, Imp and Aib written X under substitutions) | 5 | 1.9 |
| [Desaminohistidyl][Aib]HGTFTSDYSKYLDVRRAQDFVK([γGlu-γGlu-γGlu-γGlu-Ac])WLLST-OH (SMILES CC(=O)N[C@@H](CCC(=O)N[C@@H](CCC(=O)N[C@@H](CCC(=O)N[C@@H](CCC(=O)NCCCC[C@H](NC(=O)[C@@H](NC(=O)[C@H](Cc1ccccc1)NC(=O)[C@H](CC(=O)O)NC(=O)[C@H](CCC(N)=O)NC(=O)[C@H](C)NC(=O)[C@H](CCCNC(=N)N)NC(=O)[C@H](CCCNC(=N)N)NC(=O)[C@@H](NC(=O)[C@H](CC(=O)O)NC(=O)[C@H](CC(C)C)NC(=O)[C@H](Cc1ccc(O)cc1)NC(=O)[C@H](CCCCN)NC(=O)[C@H](CO)NC(=O)[C@H](Cc1ccc(O)cc1)NC(=O)[C@H](CC(=O)O)NC(=O)[C@H](CO)NC(=O)[C@@H](NC(=O)[C@H](Cc1ccccc1)NC(=O)[C@@H](NC(=O)CNC(=O)[C@H](Cc1c[nH]cn1)NC(=O)C(C)(C)NC(=O)CCc1c[nH]cn1)[C@@H](C)O)[C@@H](C)O)C(C)C)C(C)C)C(=O)N[C@@H](Cc1c[nH]c2ccccc12)C(=O)N[C@@H](CC(C)C)C(=O)N[C@@H](CC(C)C)C(=O)N[C@@H](CO)C(=O)N[C@H](C(=O)O)[C@@H](C)O)C(=O)O)C(=O)O)C(=O)O)C(=O)O, Imp and Aib written X under substitutions) | 2 | 0.5 |
| [Desaminohistidyl][Aib]HGTFTSDYSKYLDLRRAQDFVK([γGlu-γGlu-γGlu-γGlu-Ac])WLLST-OH (SMILES CC(=O)N[C@@H](CCC(=O)N[C@@H](CCC(=O)N[C@@H](CCC(=O)N[C@@H](CCC(=O)NCCCC[C@H](NC(=O)[C@@H](NC(=O)[C@H](Cc1ccccc1)NC(=O)[C@H](CC(=O)O)NC(=O)[C@H](CCC(N)=O)NC(=O)[C@H](C)NC(=O)[C@H](CCCNC(=N)N)NC(=O)[C@H](CCCNC(=N)N)NC(=O)[C@H](CC(C)C)NC(=O)[C@H](CC(=O)O)NC(=O)[C@H](CC(C)C)NC(=O)[C@H](Cc1ccc(O)cc1)NC(=O)[C@H](CCCCN)NC(=O)[C@H](CO)NC(=O)[C@H](Cc1ccc(O)cc1)NC(=O)[C@H](CC(=O)O)NC(=O)[C@H](CO)NC(=O)[C@@H](NC(=O)[C@H](Cc1ccccc1)NC(=O)[C@@H](NC(=O)CNC(=O)[C@H](Cc1c[nH]cn1)NC(=O)C(C)(C)NC(=O)CCc1c[nH]cn1)[C@@H](C)O)[C@@H](C)O)C(C)C)C(=O)N[C@@H](Cc1c[nH]c2ccccc12)C(=O)N[C@@H](CC(C)C)C(=O)N[C@@H](CC(C)C)C(=O)N[C@@H](CO)C(=O)N[C@H](C(=O)O)[C@@H](C)O)C(=O)O)C(=O)O)C(=O)O)C(=O)O, Imp and Aib are written X under substitutions because they have no one-letter code) | 1 | 0.2 |
| [Desaminohistidyl][Aib]HGTFTSDYSKYLESRRAQEFVK([γGlu-γGlu-γGlu-γGlu-Ac])WLLST-OH (SMILES CC(=O)N[C@@H](CCC(=O)N[C@@H](CCC(=O)N[C@@H](CCC(=O)N[C@@H](CCC(=O)NCCCC[C@H](NC(=O)[C@@H](NC(=O)[C@H](Cc1ccccc1)NC(=O)[C@H](CCC(=O)O)NC(=O)[C@H](CCC(N)=O)NC(=O)[C@H](C)NC(=O)[C@H](CCCNC(=N)N)NC(=O)[C@H](CCCNC(=N)N)NC(=O)[C@H](CO)NC(=O)[C@H](CCC(=O)O)NC(=O)[C@H](CC(C)C)NC(=O)[C@H](Cc1ccc(O)cc1)NC(=O)[C@H](CCCCN)NC(=O)[C@H](CO)NC(=O)[C@H](Cc1ccc(O)cc1)NC(=O)[C@H](CC(=O)O)NC(=O)[C@H](CO)NC(=O)[C@@H](NC(=O)[C@H](Cc1ccccc1)NC(=O)[C@@H](NC(=O)CNC(=O)[C@H](Cc1c[nH]cn1)NC(=O)C(C)(C)NC(=O)CCc1c[nH]cn1)[C@@H](C)O)[C@@H](C)O)C(C)C)C(=O)N[C@@H](Cc1c[nH]c2ccccc12)C(=O)N[C@@H](CC(C)C)C(=O)N[C@@H](CC(C)C)C(=O)N[C@@H](CO)C(=O)N[C@H](C(=O)O)[C@@H](C)O)C(=O)O)C(=O)O)C(=O)O)C(=O)O, Imp and Aib written X under substitutions) | 2 | 1 |
| [Desaminohistidyl][Aib]HGTFTSDYSKYLESRRAQDFVAWLLK([γGlu-γGlu-γGlu-γGlu-Ac])T-OH (SMILES CC(=O)N[C@@H](CCC(=O)N[C@@H](CCC(=O)N[C@@H](CCC(=O)N[C@@H](CCC(=O)NCCCC[C@H](NC(=O)[C@H](CC(C)C)NC(=O)[C@H](CC(C)C)NC(=O)[C@H](Cc1c[nH]c2ccccc12)NC(=O)[C@H](C)NC(=O)[C@@H](NC(=O)[C@H](Cc1ccccc1)NC(=O)[C@H](CC(=O)O)NC(=O)[C@H](CCC(N)=O)NC(=O)[C@H](C)NC(=O)[C@H](CCCNC(=N)N)NC(=O)[C@H](CCCNC(=N)N)NC(=O)[C@H](CO)NC(=O)[C@H](CCC(=O)O)NC(=O)[C@H](CC(C)C)NC(=O)[C@H](Cc1ccc(O)cc1)NC(=O)[C@H](CCCCN)NC(=O)[C@H](CO)NC(=O)[C@H](Cc1ccc(O)cc1)NC(=O)[C@H](CC(=O)O)NC(=O)[C@H](CO)NC(=O)[C@@H](NC(=O)[C@H](Cc1ccccc1)NC(=O)[C@@H](NC(=O)CNC(=O)[C@H](Cc1c[nH]cn1)NC(=O)C(C)(C)NC(=O)CCc1c[nH]cn1)[C@@H](C)O)[C@@H](C)O)C(C)C)C(=O)N[C@H](C(=O)O)[C@@H](C)O)C(=O)O)C(=O)O)C(=O)O)C(=O)O, Imp and Aib written X under substitutions) | 5 | 1.8 |
| [Desaminohistidyl][Aib]HGTFTSDLSKYLESRRAQDFVK([γGlu-γGlu-γGlu-γGlu-Ac])WLLST-OH (SMILES CC(=O)N[C@@H](CCC(=O)N[C@@H](CCC(=O)N[C@@H](CCC(=O)N[C@@H](CCC(=O)NCCCC[C@H](NC(=O)[C@@H](NC(=O)[C@H](Cc1ccccc1)NC(=O)[C@H](CC(=O)O)NC(=O)[C@H](CCC(N)=O)NC(=O)[C@H](C)NC(=O)[C@H](CCCNC(=N)N)NC(=O)[C@H](CCCNC(=N)N)NC(=O)[C@H](CO)NC(=O)[C@H](CCC(=O)O)NC(=O)[C@H](CC(C)C)NC(=O)[C@H](Cc1ccc(O)cc1)NC(=O)[C@H](CCCCN)NC(=O)[C@H](CO)NC(=O)[C@H](CC(C)C)NC(=O)[C@H](CC(=O)O)NC(=O)[C@H](CO)NC(=O)[C@@H](NC(=O)[C@H](Cc1ccccc1)NC(=O)[C@@H](NC(=O)CNC(=O)[C@H](Cc1c[nH]cn1)NC(=O)C(C)(C)NC(=O)CCc1c[nH]cn1)[C@@H](C)O)[C@@H](C)O)C(C)C)C(=O)N[C@@H](Cc1c[nH]c2ccccc12)C(=O)N[C@@H](CC(C)C)C(=O)N[C@@H](CC(C)C)C(=O)N[C@@H](CO)C(=O)N[C@H](C(=O)O)[C@@H](C)O)C(=O)O)C(=O)O)C(=O)O)C(=O)O, Imp and Aib written X under substitutions) | 10 | 4.9 |
